Common to all, as to experiment: ELISA
For orientation: ELISA stands for enzyme-linked immunosorbent assay.

The target in experiment [1] is T1, Cry4Ba-domain III fragment (Bacillus thuringiensis subsp. …).
T1 sequence (P05519 whole entry, looked up): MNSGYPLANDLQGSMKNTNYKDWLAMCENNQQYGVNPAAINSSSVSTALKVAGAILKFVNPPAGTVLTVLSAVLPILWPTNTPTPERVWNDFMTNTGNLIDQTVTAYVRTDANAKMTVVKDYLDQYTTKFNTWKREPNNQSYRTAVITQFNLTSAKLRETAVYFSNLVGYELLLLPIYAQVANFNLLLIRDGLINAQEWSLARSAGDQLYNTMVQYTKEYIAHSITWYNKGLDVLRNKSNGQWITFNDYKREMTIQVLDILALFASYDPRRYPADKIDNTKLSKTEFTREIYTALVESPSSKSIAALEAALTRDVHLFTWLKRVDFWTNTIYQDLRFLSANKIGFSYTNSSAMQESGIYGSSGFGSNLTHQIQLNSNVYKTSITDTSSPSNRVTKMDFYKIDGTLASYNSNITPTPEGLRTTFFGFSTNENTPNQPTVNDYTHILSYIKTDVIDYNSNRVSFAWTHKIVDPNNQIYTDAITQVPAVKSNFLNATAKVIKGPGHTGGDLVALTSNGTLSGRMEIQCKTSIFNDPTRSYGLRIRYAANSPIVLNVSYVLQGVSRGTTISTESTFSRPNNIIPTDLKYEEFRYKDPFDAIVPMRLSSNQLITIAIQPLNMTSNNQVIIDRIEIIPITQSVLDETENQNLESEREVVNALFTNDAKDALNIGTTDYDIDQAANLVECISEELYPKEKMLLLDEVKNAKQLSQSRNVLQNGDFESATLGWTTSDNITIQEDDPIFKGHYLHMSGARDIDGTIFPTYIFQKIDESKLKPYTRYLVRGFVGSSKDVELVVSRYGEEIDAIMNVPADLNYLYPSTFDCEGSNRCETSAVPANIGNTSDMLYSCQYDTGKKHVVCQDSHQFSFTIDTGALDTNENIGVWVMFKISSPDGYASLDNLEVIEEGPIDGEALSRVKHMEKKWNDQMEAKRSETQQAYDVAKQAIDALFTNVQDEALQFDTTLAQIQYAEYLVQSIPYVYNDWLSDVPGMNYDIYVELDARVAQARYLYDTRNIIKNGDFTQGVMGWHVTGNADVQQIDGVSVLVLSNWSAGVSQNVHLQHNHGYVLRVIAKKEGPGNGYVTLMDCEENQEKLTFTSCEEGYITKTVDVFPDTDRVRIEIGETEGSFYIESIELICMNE

Experiment [2] addresses T2, Cry4Ba-domain II fragment (Bacillus thuringiensis subsp. …, UniProt P05519 286-470).
T2 sequence: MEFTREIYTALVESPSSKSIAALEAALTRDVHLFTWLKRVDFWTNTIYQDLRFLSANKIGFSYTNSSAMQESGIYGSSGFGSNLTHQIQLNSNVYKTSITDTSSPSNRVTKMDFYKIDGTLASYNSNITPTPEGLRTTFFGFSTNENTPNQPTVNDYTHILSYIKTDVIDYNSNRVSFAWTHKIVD

Experiment [3] deals with T2, Cry4Ba-domain II fragment. The source holds these as a separate data set.

Where two headings read alike, the source gives them in different places.

B1: Aedes aegypti membrane-bound alkaline phosphatase (Aa-mALP) (receptor)
chain: MTLYRSRAANMSRLRFDVSVWVMVTMCVLSARNCWAQGEYDPNYWNQQAHDLLFEKKDYTMQKVNIAKNIIVFVGSGMSQATVTAARTHKGGENATFPFEQLKWSGNARTYCVDSRVPDSACASTAFLTGVKSNLGTVAVHPNVKRGDCVATSDKVKQLESIAKWALAEGRVVGFATTSRVTAGSNAALYAHSADKDWENDASVTAAGCNATQVNDIAYQLINGDVGKHFKVIFGGGRKNFIPNTETDESGARGLRTDGKNLIQEWKESKTGNAVYITTNSELGALNTTNIDYLMGLFSYDRLPYAADMGEEPNKETPPLVRMVHYSLEMLQKKEHSGGFLLFVEDGNIQEAHKENKPIKAFEQVKHYANAFNMAHMMVSEANTLLISMNDVGSTLSIPGYPARDTDILTEAGTSDKDSKPYLSLAYATGPSYDSYYQPNEGRVNPLAVLQGTPTQKEQTCSAAVPMSEGVNGGEDASVYATGPWAFMFSGGYEQNFIAHAISFASCITDVCGGASSVVVSSAALLLALMVRVFA
Usually Kd stands for the constant that tells how readily two partners part at equilibrium. For B1, the Kd in experiment [1] came out at 118 ± 8.1 nM; in experiment [2] it was 118 nM; in experiment [3], 116 nM.
